Consider one molecule from US12534533B2, “Anti-chemokine like receptor 1 humanized antibodies and their therapeutic applications” (OSE IMMUNOTHERAPEUTICS, priority 2019, dated 2026).

The subject of test [1] is peritonitis induced by Zymosan A. The test is described as follows: peritonitis model (Zymosan A). Type of test: in vivo, mice. The conditions noted are these: vs isotype control. The procedure: FIG. 7. Effect of an anti-CMKLR1 antibody on a mice peritonitis model. Preventive injection of anti-CMKLR1 was performed before Zymosan A injection (1 mg per mouse in 1 mL): RvE1 (1 μg per mouse) (●), 2G1 antibody (10 μg per mouse) (□) or isotype control antibody (x). A. PMN numbered during the first 50 hours after Zymosan A injection. B. Macrophages numbered during the first 50 hours after Zymosan A injection. C. Resolution index.
Common peritonitis is induced by intraperitoneal injection of Zymosan A® (1 mg per mouse in 1 mL). Preventive injection of anti-CMKLR1 was performed 5 minutes before Zymosan A injection: RvE1 (1 μg per mouse), 2G1 antibody (10 μg per mouse). Murine peritoneal polymorphonuclear neutrophil (PMN) and macrophages were collected at 2-4-8-16-24 and 48 h after Zymosan A injection and numbered by flow cytometry analysis to determinate the resolution index (Bannenberg et al., 2005).

The next test has as its system 4T1 cells. The test is described as follows: orthotopic mammary carcinoma model (4T1). Type of test: in vivo, mice. The procedure:
FIG. 8. Effect of an anti-CMKLR1 antibody on a 4T1 breast tumor model. Mice were inoculated with 4T1 cells (0.25 million) in the mammary gland. Then the anti-CMKLR1 antibody (2G1) (A. […]B. ●) or an anti-41BB antibody (3H3) (●) or both antibodies (▴) were injected twice at day 4 and day 7 (10 μg/injection) or a control antibody (IgG1 isotype antibody clone 3G8) (x A. and B.) was injected three time a week for three weeks. A. The tumor area was measured 8 days after tumor injection and then every 2 days. B. Tumor lung metastasis was measured by Bioluminescence imaging (BLI) in animals treated with isotype control and anti-CMKLR1 antibody (n=4).
Mice were anesthetized with 3% of isoflurane. Mice were shaved on the abdomen and 4T1 cells (0.25 millions) were injected in the mammary gland with an insulinic syringe (30 Gauges) in 50 μL of PBS. The anti-CMKLR1 antibody (2G1) or an anti-41BB antibody (3H3) or both antibodies were injected twice at day 4 and day 7 (10 μg/injection); a control antibody was injected three times a week for three weeks intraperitoneally in PBS (100 μg/injection). In a second study to measure the lung metastasis following mammary carcinoma development, animals were treated with anti-CMKLR1 antibody at 0.8 mg/kg or control antibody (100 μg/injection) three times a week for three weeks.

The next test deals with MC38 cells. In words: MC38 colon carcinoma model. Type of test: in vivo, mice. The note with it: 20 μg/injection i.p. for 3 weeks; vs isotype control; FIG. 9D. How it is done: FIG. 9. Effect of an anti-CMKLR1 antibody on 2 different colon carcinoma mice models. Two mice models were studied, and animals received isotype control antibody (3G8) (x) or anti-CMKLR1 (2G1) (□) at 20 μg/injection intraperitoneally for 3 weeks. A-C. Results in the CT26 colon carcinoma model comparing single treatment with p84 (A) and 2G1 (B) with combined therapy with both antibodies (C). D: Results in the MC38 colon carcinoma model.
8-week old C57bl/6J male mice were anesthetized with 3% of isoflurane. Mice were shaved on the flank and MC38 cells (0.5·10≢cells/mouse) cell lines were injected subcutaneously with an insulinic syringe (30 Gauges) in 50 μL of PBS. Another model was used, in which 8-week old Balb/c male mice were anesthetized with 3% of isoflurane. Mice were shaved on the flank and CT26 cells (1.10≢cells/mouse) were injected subcutaneously with an insulinic syringe (30 Gauges) in 50 μL of PBS.
The agonistic anti-CMKLR1 antibody (2G1) or an anti-SIRPa antibody (p84-anti-mouse SIRPa from Merck Millipore) (SIRPa is a new checkpoint inhibitor) were injected once a week (20 μg/injection) intraperitoneally for 3 weeks starting at d4 after tumor inoculation alone or combined.

Test [2] has as its system Akt and Erk phosphorylation in pro-inflammatory (M1) macrophages. In words: Western blot analysis ERK/Akt phosphorylation. Type of test: cell-based, mice. The conditions noted are these: 2 μg/mL; after 10 to 30 minutes of incubation; FIG. 17. How it is done:
FIG. 17. Study of the CMKLR1 pathway activation: Akt and Erk phosphorylation. Western blot analysis of the ERK and AKT activation pathway after 5, 10 and 30 minutes of mice pro-inflammatory (M1) macrophages incubated with 2G1 or RvE1. The Phosphorylated protein Akt or Erk were assessed using P-Akt antibody or P-Erk antibody (p44/42). A. Erk and Akt activation with RvE1. B. Erk and Akt activation with 2G1.
Mice pro-inflammatory macrophages (M1) were generated from bone marrow with M-CSF and polarized with IFN-gamma (IFNg) and LPS. Briefly, bone marrow cells were collected by flushing the femoral bone and cultured with 100 ng/mL of mM-CSF for 5 days and then polarized with 20 ng/mL of IFNg and 100 ng/mL of LPS for 24 h. Then, they were deprived of FBS for 24 hours with RPMI FBS 2% medium. Finally, mice pro-inflammatory macrophages were treated with 2 μg/mL of 2G1 antibody at different times: 5, 10 and 30 minutes. Cells were collected in a RIPA buffer. The protein concentration was measured by a BCA protein kit assay. Proteins were denatured by heating at 95° C. for 5 minutes and diluted in DTT and Laemmli solution. After migration and transfer, the nitrocellulose membrane was blocked with 5% BSA in TBS-T for 2 hours. […] Western blot Images were quantified by Multi Gauge software
For orientation: A western blot detects proteins with antibodies after separation by electrophoresis.

Test [3] has as its system neutrophils and macrophages in exudates. In words: in vivo neutrophils apoptosis (sterile air and carrageenan, exudates). The procedure:
FIG. 27—in vivo neutrophils apoptosis —A) Experimental proceedings—B) ChemR23 expression C) neutrophils frequency in exudates D) macrophages frequency in exudates G) neutrophils mortality F) Ratio dead/living neutrophils.
Sterile air was injected two times at d3 and d6 and inflammation was initiated with the injection of carrageenan. Exudates were collected at different times and stained for flow cytometry analysis.

The next test deals with AK-7 cells. The test is described as follows: Mesothelioma model survival. Type of test: in vivo, mice. The note with it: 1 mg/kg three times a week for 3 weeks starting at d4; vs control antibody; FIG. 30. The procedure: AK-7 cells (3M) were injected in the pleural cavity and mice received either Iso ctrl or 2G1 three times a week for 3 weeks starting at d4 at 1 mg/kg.

B1: 2G1: parental chimeric anti-CMKLR1 antibody: heavy chain variable domain SEQ ID No. 37, light chain variable domain SEQ ID No. 49 (antibody, V domains shown)
VH: EVQLVASGGGLVQPGGSLKLSCAASGFTFSSYGMSWVRQTPDRRLELVATINRYGGSTYYPDSVKGRFTISRDNAKNTLYLQMSSLKSEDTAMYYCPRLIYYGNEGDSWGQGTTLTVSS
VL: QIVLTQSPAIMSASPGEKVTMTCSASSSVSFMHWYQQKSGTSPKRWIYDTTKLTSGVPARFSGSGSGTFYSLTISSMEAEDAATYYCQQWNSKPPLTFGPGTKLELKR
B1: the PMNs number entry in test [1] (first 50 hours after Zymosan A, FIG. 7A) is given as “slightly less”. Besides, in test [1] (first 50 hours after Zymosan A, FIG. 7B), the Macrophages number result is given as “slightly less”. In addition, the resolution index entry in test [1] (FIG. 7C) is “better resolution index”. For the same molecule, the “tumor growth (tumor area)” value in the test with 4T1 cells (10 μg/injection at day 4 and day 7, vs isotype control, FIG. 8A) is reported as “did not show any improvement”. In addition, the “lung metastasis by bioluminescence imaging” value in the test on 4T1 cells (0.8 mg/kg three times a week for three weeks, vs control antibody, FIG. 8B) is recorded as “reduces the lung metastasis”. The lymph node metastasis entry with 4T1 cells (two animals in the control have metastasis, data not shown) is reported as “no animals treated with the anti-CMKLR1 compound has metastasis”. Further, in the test on MC38 cells, the tumor growth entry is reported as “did show an efficacy in the inhibition of the tumor growth”. For the same molecule, the “activation of Akt and Erk proteins (phosphorylation)” value in test [2] is “able to induce the activation of both Akt and Erk proteins”. In addition, the “percentage of neutrophils in exudates” value in test [3] (FIG. 27C) is recorded as “not significantly decreased”. Also, the “overall percentage of macrophages in exudates” value in test [3] (FIG. 27D) is on record as “slightly enhanced”. Further, the “percentage of dead neutrophils” value in test [3] (FIG. 27E and FIG. 27F) is given as “increased”. Further, the survival rate result with AK-7 cells is “higher survival rate”.
